Results published in US20120172298A1, “GLP-1 AND FGF21 COMBINATIONS FOR TREATMENT OF DIABETES TYPE 2” (Novo Nordisk A/S, priority 2009, published 2012).
Values joined by “and” are separate entries in the source; they are usually repeats but may differ in a detail not shown here. Identical values can stand only once.

Test system: pancreatic islets from diabetic db/db mice
Assay: Restoration of glucose stimulated insulin release ex vivo (islet perifusion)
Format: cell-based
Design: AUC for time 35-75 minutes (glucose response), single repetitions / AUC for time 75-140 minutes (forskolin response), single repetitions: unit not given here
Conditions: for insulin release: mean +/- SEM
Procedure: This ex vivo example investigates the ability of pancreatic islets from diabetic db/db mice to restore, in response to treatment with FGF21 and GLP-1 compounds, the ability to release insulin in response to glucose stimulation.
Islets from 25 db/db mice (Charles River), 15 weeks of age, were isolated according to the following procedure:
Animals were killed by cervical dislocation and fixated with pins on a Styrofoam plate. Pancreata were removed and transferred to a Packard vial containing 5 ml collagenase (Life Science, grade II, cat. no. 100502) 300 units/ml (one pancreas/vial) which was kept on ice until all pancreata were removed. Then the pancreata were shaken in the Grant/Edmund S25 thermoshaker at 200 strokes/min. at 37° C. for 5 min. The tissue was transferred to a fresh vial containing 5 ml 150 units/ml collagenase (supernatant was discarded) and shaken again in the thermoshaker for 5 min. The tissue was further shaken 3-5 min. on the thermoshaker, and thereafter all shaking is done by hand for 5-10 sec. each time. These steps were repeated until all tissue was digested. The process was followed continuously under the stereomicroscope and once digested the tissue was pooled and collected in progressively fewer tubes. All supernatants were washed 3 times in HBSS+0.5% NCS (HBSS (10×) from Gibco, cat. no. 14060, is diluted 10× in H2O before use, Newborn Calf Serum (NCS) from Gibco, cat. no. 26010-066), allowed to sediment for 5 min. between each wash, and left on ice, following which the islets were ready for picking. Islets were purified by transferring a little bit of supernatant to a Petri dish, filling up with HBSS+NCS and subsequently transferring (by mouth pipetting) with a constriction pipette to a new Petri dish. From there the islet were re-picked until pure, and then incubated in RPMI 1640 medium (Gibco, cat no 61870-010)+10% NCS at 37° C.
After incubation, the islets were washed in Krebs Ringer solution (115 mM NaCl, 4.7 mM KCl, 2.6 mM CaCl2, 1.2 mM KH2PO4, 1.2 mM MgSO4, 10 mM HEPES, 0.2% BSA, 2 mM glutamine, 5 mM NaHCO3, pH 7.4) and subsequently used in an islet perifusion experiment (Suprafusion 2500 from Brandel). For each of the three preincubation conditions four perifusion columns each with 60 islets were used. The islets were placed in Bio-gel P2 (Bio-Rad. cat. no. 150-4114) in the columns with a nylon mesh below and above the gel. The islets were initially perifused for 40 minutes with Krebs Ringer solution containing 3 mM glucose to obtain a stable baseline of insulin release. After 40 minutes the buffer was exchanged to 15 mM glucose for 30 minutes (time 40-70 min). Then the buffer was exchanged to 15 mM glucose containing 10 μM forskolin (Tocris 1099, batch 3A/86008) for 40 minutes (time 70-110 min). Finally the buffer was exchanged to low glucose (3 mM) for 30 minutes (time 110-140 min). The buffer was set to flow through the perifusion system at a rate of 0.3 ml/minute. Samples were taken every 5 minutes from time 30 to 140 min. Samples were stored at −20° C. and subsequently analysed for insulin, essentially as described by Poulsen et al. in Journal of Biomolecular Screening 12(X); p. 1-8, 2007 (LOCI (Luminescent Oxygen Channeling Immunoassay) sandwich immunoassay).
The results (ng/ml insulin) are shown in Table 1 below as mean+/−standard error of mean (SEM). The figures for the control and the FGF21 compound are based on three repetitions (due to problems with one of the four columns in these two experiments), while the figures for the GLP-1 compound are based on four repetitions.
The corresponding Area Under the Curve (designated AUC) figures were also calculated, and for the statistics the Student's T-test was used.

[1] = insulin AUC per perifusion column, FGF21 = 50 nM Compound F1, GLP-1 = 100 nM Compound G3

B1: Met-FGF21_human (protein, listed as Homo sapiens)
chain: HPIPDSSPLLQFGGQVRQRYLYTDDAQQTEAHLEIREDGTVGGAADQSPESLLQLKALKPGVIQILGVKTSRFLCQRPDGALYGSLHFDPEACSFRELLLEDGYNVYQSEAHGLPLHLPGNKSPHRDPAPRGPARFLPLPGLPPALPEPPGILAPQPPDVGSSDPLSMVGPSQGRSPSYAS
modifications: N-terminal Met; mat_peptide (1)..(181); DISULFID (75)..(93)
db/db mice pancreatic islets, Table 2 results, F1 50 nM, G3 100 nM
  restoration of glucose stimulated insulin release ex vivo: capable of restoring glucose stimulated insulin release
[1]
  AUC for time 35-75 minutes (glucose response), single repetitions: 521.2 and 514.5 and 359.9
  AUC for time 75-140 minutes (forskolin response), single repetitions: 5402 and 4177 and 5832
Insulin AUC, FGF21 = 50 nM Compound F1, GLP-1 = 100 nM Compound G3, * FGF21 vs GLP-1
  AUC for time 75-140 minutes (forskolin response), mean: (mean 5137*)
Insulin AUC, FGF21 = 50 nM Compound F1, GLP-1 = 100 nM Compound G3, ** vs control
  AUC for time 35-75 minutes (glucose response), mean: (mean 465.2**)
Time 35 min, 3 mM glucose, islets preincubated 48 h with 50 nM Compound F1 or 100 nM Compound G3
  insulin release: 0.92 ± 0.10 ng/mL
Time 40 min, 3 mM glucose, preincubation 48 h 50 nM F1 or 100 nM G3
  insulin release: 0.71 ± 0.06 ng/mL
Time 45 min, 15 mM glucose, preincubation 48 h 50 nM F1 or 100 nM G3
  insulin release: 0.68 ± 0.04 ng/mL
Time 50 min, 15 mM glucose, preincubation 48 h 50 nM F1 or 100 nM G3
  insulin release: 19.56 ± 6.74 ng/mL
Time 55 min, 15 mM glucose, preincubation 48 h 50 nM F1 or 100 nM G3
  insulin release: 28.33 ± 2.09 ng/mL
Time 60 min, 15 mM glucose, preincubation 48 h 50 nM F1 or 100 nM G3
  insulin release: 12.07 ± 0.50 ng/mL
Time 65 min, 15 mM glucose, preincubation 48 h 50 nM F1 or 100 nM G3
  insulin release: 11.13 ± 0.66 ng/mL
Time 70 min, 15 mM glucose, preincubation 48 h 50 nM F1 or 100 nM G3
  insulin release: 13.37 ± 0.63 ng/mL
Time 75 min, 15 mM glucose + 10 μM forskolin, preincubation 48 h 50 nM F1 or 100 nM G3
  insulin release: 13.47 ± 0.78 ng/mL
Time 80 min, 15 mM glucose + 10 μM forskolin, preincubation 48 h 50 nM F1 or 100 nM G3
  insulin release: 77.17 ± 14.84 ng/mL
Time 85 min, 15 mM glucose + 10 μM forskolin, preincubation 48 h 50 nM F1 or 100 nM G3
  insulin release: 160.00 ± 16.52 ng/mL
Time 90 min, 15 mM glucose + 10 μM forskolin, preincubation 48 h 50 nM F1 or 100 nM G3
  insulin release: 154.00 ± 15.00 ng/mL
Time 95 min, 15 mM glucose + 10 μM forskolin, preincubation 48 h 50 nM F1 or 100 nM G3
  insulin release: 148.33 ± 17.95 ng/mL
Time 100 min, 15 mM glucose + 10 μM forskolin, preincubation 48 h 50 nM F1 or 100 nM G3
  insulin release: 125.00 ± 17.35 ng/mL
Time 105 min, 15 mM glucose + 10 μM forskolin, preincubation 48 h 50 nM F1 or 100 nM G3
  insulin release: 99.40 ± 11.84 ng/mL
Time 110 min, 15 mM glucose + 10 μM forskolin, preincubation 48 h 50 nM F1 or 100 nM G3
  insulin release: 79.97 ± 8.43 ng/mL
Time 115 min, low glucose (3 mM), preincubation 48 h 50 nM F1 or 100 nM G3
  insulin release: 69.63 ± 9.61 ng/mL
Time 120 min, low glucose (3 mM), preincubation 48 h 50 nM F1 or 100 nM G3
  insulin release: 56.23 ± 8.37 ng/mL
Time 125 min, low glucose (3 mM), preincubation 48 h 50 nM F1 or 100 nM G3
  insulin release: 30.03 ± 6.67 ng/mL
Time 130 min, low glucose (3 mM), preincubation 48 h 50 nM F1 or 100 nM G3
  insulin release: 13.16 ± 3.21 ng/mL
Time 135 min, low glucose (3 mM), preincubation 48 h 50 nM F1 or 100 nM G3
  insulin release: 5.76 ± 0.70 ng/mL
Time 140 min, low glucose (3 mM), preincubation 48 h 50 nM F1 or 100 nM G3
  insulin release: 3.92 ± 0.37 ng/mL
